Assay results reported in doi:10.1101/2023.04.30.538836.

Biological target: PlsB from Themomonas haemolytica (Themomonas haemolytica)
Test: cryo-EM structure

“PlsB from Themomonas haemolytica (enzyme)” was tested. Which stoichiometry N did it give?
Its stoichiometry N is 2.
